B1: Sta006 (other)
chain: MASCGNQGEKNNKAETKSYKMDDGKTVDIPKDPKRIAVVAPTYAGGLKKLGANIVAVNQQVDQSKVLKDKFKGVTKIGDGDVEKVAKEKPDLIIVYSTDKDIKKYQKVAPTVVVDYNKHKYLEQQEMLGKIVGKEDKVKAWKKDWEETTAKDGKEIKKAIGQDATVSLFDEFDKKLYTYGDNWGRGGEVLYQAFGLKMQPEQQKLTAKAGWAEVKQEEIEKYAGDYIVSTSEGKPTPGYESTNMWKNLKATKEGHIVKVDAGTYWYNDPYTLDFMRKDLKEKLIKAAK
notes: Seen as monomer and dimer in the formulations

What was measured:
[1] = biological target: the molecule itself; assay: capillary electrophoresis (SDS-MW) of tetravalent formulation, pH 6, no EDTA, 25 C up to 72 h; self-association (disulfide-linked dimer)
Procedure: (§1) Capillary Electrophoresis analyses were performed with a Beckman Coulter PA800 instrument, SDS-MW application. The sample was prepared by mixing 90 μL of the pre-lyophilized formulation with 10 μL of TRIS-SDS buffer.

[2] = biological target: B1; assay: capillary electrophoresis (SDS-MW) of tetravalent formulation, pH 6, no EDTA, 25 C up to 72 h; attributed to redox reactions
Procedure: as §1

[3] = biological target: the molecule itself; assay: SEC-HPLC of tetravalent pre-lyophilized formulation; self-association (dimer peak)

Binder | binding result [1] | binding result [2] | binding result [3]
EsxAB hybrid polypeptide (other, also called EsxAB monomer) MAMIKMSPEEIRAKSQSYGQGSDQIRQILSDLTRAQGEIAANWEGQAFSRFEEQFQQLSPKVEKFAQLLEEIKQQLNSTADAVQEQDQQLSNNFGLQASGGGSGGYKGIKADGGKVDQAKQLAAKTAKDIEACQKQTQQLAEYIEGSDWEGQFANKVKDVLLIMAKFQEELVQPMADHQKAIDNLSQNLAKYDTLSIKQGLDRVNP | binds | binds | 
B1 |  |  | binds
